Source: PMC9813592, “A genetic screen in Arabidopsis reveals the identical roles for RBP45d and PRP39a in 5’ cryptic splice site selection”

T1: RBP45d (His-RBP45d) (Arabidopsis thaliana, UniProt Q8VXZ9 1-425)
T1 sequence: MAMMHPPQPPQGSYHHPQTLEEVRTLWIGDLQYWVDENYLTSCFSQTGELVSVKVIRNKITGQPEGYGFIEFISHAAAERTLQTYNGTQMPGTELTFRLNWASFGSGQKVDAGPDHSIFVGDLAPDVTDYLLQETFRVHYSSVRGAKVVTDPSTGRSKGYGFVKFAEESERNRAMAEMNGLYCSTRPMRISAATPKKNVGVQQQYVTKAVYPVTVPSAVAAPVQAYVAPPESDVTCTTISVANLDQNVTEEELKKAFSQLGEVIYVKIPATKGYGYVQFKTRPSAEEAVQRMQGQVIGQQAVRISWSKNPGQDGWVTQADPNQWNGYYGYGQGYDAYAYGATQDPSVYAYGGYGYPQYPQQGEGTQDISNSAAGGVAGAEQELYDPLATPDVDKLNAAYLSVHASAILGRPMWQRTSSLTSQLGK


Columns and labels:
RBP45d (His-RBP45d) [1] = biological target: T1, RBP45d (His-RBP45d); experiment: competition; unlabeled vs Cy5-SOT5-IN7; REMSA; buffer, salt, pH and temperature not given in the material; unlabeled competitor up to at least 6 uM; conditions: protein: recombinant; tags: His (pET51b); single strand
RBP45d (His-RBP45d) [2] = biological target: T1, RBP45d (His-RBP45d); experiment: EMSA; dose-dependent; REMSA; buffer, salt, pH and temperature not given in the material; unlabeled competitor up to at least 6 uM; conditions: protein: recombinant; tags: His (pET51b); label: 5'-Cy5; single strand

Row | Binder | binding result (RBP45d (His-RBP45d) [1]) | binding result (RBP45d (His-RBP45d) [2])
1 | CUCAAUAUGGCAAAUUUUGUAAAUC (ssRNA) [SOT5-IN7-M2-NL] | binds | 
2 | CUCAAUAUGAUAAAUUUUGUAAAUC (ssRNA) [SOT5-IN7-NL] | binds | 
3 | CUCAAUAUGAUAAAUUUUGUAAAUC (ssRNA) [Cy5-SOT5-IN7] |  | binds
4 | CUCAAUAUGCCCGGCCGGGUAAAUC (ssRNA) [SOT5-IN7-M4-NL] | no binding | 
5 | CUCAAUAUGGUAAAUUUUGUAAAUC (ssRNA) [SOT5-IN7-M1-NL] | binds | 
